Measured values from patent US20120220489A1.

What was measured:
[1] = target: pRb recombinant protein, human, Active Motif 31 128 (human) (UniProt P06400); assay: RPA standard curves, mean of duplicate assays
[2] = target: pRb-BSA 1x peptide-protein conjugate (bovine); assay: RPA standard curves, mean of duplicate assays
[3] = target: Histone H3 recombinant protein, human, Upstate 14-494 (human) (UniProt P68431); assay: RPA, competition: +free pRb peptide 10 nM
[4] = target: ERK1 (p42) active (phospho), human, Active Motif 31 152 (human) (UniProt P27361); assay: RPA, competition: +free pRb peptide 10 nM
[5] = target: ERK1 (p44) active (GST tagged), human, Invitrogen PV 3311 (human) (UniProt P27361); assay: RPA, competition: +free pRb peptide 10 nM
[6] = target: Histone H3-BSA 2.7x peptide-protein conjugate (bovine); assay: RPA, competition: +free pRb peptide 10 nM
[7] = target: pRb recombinant protein, human, Active Motif 31 128 (human) (UniProt P06400); assay: RPA, competition: +free pRb peptide 10 nM
[8] = target: pRb-BSA 1x peptide-protein conjugate (bovine); assay: RPA, competition: +free pRb peptide 10 nM
[9] = target: ERK1 (p44) inactive (GST tagged), human, Invitrogen PV 3312 (human) (UniProt P27361); assay: RPA, competition: +free pRb peptide 10 nM
[10] = target: ERK1 (p44), human, Cell Signaling Technology 7416 (human) (UniProt P27361); assay: RPA, competition: +free pRb peptide 10 nM
[11] = target: pErk1/2-BSA 2.7x peptide-protein conjugate (human; bovine); assay: RPA, competition: +free pRb peptide 10 nM
[12] = target: Histone H3 recombinant protein, calf, Roche 11 034 758 001 (calf) (UniProt P68432); assay: RPA, competition: +free pRb peptide 10 nM
[13] = target: Erk1-BSA 2.7x peptide-protein conjugate (human; bovine); assay: RPA, competition: +free pRb peptide 10 nM
[14] = target: ERK2 (p42), human, Biosource PHO 0104 (human) (UniProt P28482); assay: RPA, competition: +free pRb peptide 10 nM
[15] = target: Histone H3 recombinant protein, human, Upstate 14-494 (human) (UniProt P68431); assay: RPA, competition: +free pRb peptide 100 nM
[16] = target: ERK1 (p42) active (phospho), human, Active Motif 31 152 (human) (UniProt P27361); assay: RPA, competition: +free pRb peptide 100 nM
[17] = target: ERK1 (p44) active (GST tagged), human, Invitrogen PV 3311 (human) (UniProt P27361); assay: RPA, competition: +free pRb peptide 100 nM
[18] = target: Histone H3-BSA 2.7x peptide-protein conjugate (bovine); assay: RPA, competition: +free pRb peptide 100 nM
[19] = target: pRb recombinant protein, human, Active Motif 31 128 (human) (UniProt P06400); assay: RPA, competition: +free pRb peptide 100 nM
[20] = target: pRb-BSA 1x peptide-protein conjugate (bovine); assay: RPA, competition: +free pRb peptide 100 nM
[21] = target: ERK1 (p44) inactive (GST tagged), human, Invitrogen PV 3312 (human) (UniProt P27361); assay: RPA, competition: +free pRb peptide 100 nM
[22] = target: ERK1 (p44), human, Cell Signaling Technology 7416 (human) (UniProt P27361); assay: RPA, competition: +free pRb peptide 100 nM
[23] = target: pErk1/2-BSA 2.7x peptide-protein conjugate (human; bovine); assay: RPA, competition: +free pRb peptide 100 nM
[24] = target: Histone H3 recombinant protein, calf, Roche 11 034 758 001 (calf) (UniProt P68432); assay: RPA, competition: +free pRb peptide 100 nM
[25] = target: Erk1-BSA 2.7x peptide-protein conjugate (human; bovine); assay: RPA, competition: +free pRb peptide 100 nM
[26] = target: ERK2 (p42), human, Biosource PHO 0104 (human) (UniProt P28482); assay: RPA, competition: +free pRb peptide 100 nM
[27] = target: Histone H3 recombinant protein, human, Upstate 14-494 (human) (UniProt P68431); assay: RPA, competition: +free pRb peptide 1000 nM
[28] = target: ERK1 (p42) active (phospho), human, Active Motif 31 152 (human) (UniProt P27361); assay: RPA, competition: +free pRb peptide 1000 nM
[29] = target: ERK1 (p44) active (GST tagged), human, Invitrogen PV 3311 (human) (UniProt P27361); assay: RPA, competition: +free pRb peptide 1000 nM
[30] = target: Histone H3-BSA 2.7x peptide-protein conjugate (bovine); assay: RPA, competition: +free pRb peptide 1000 nM
[31] = target: pRb recombinant protein, human, Active Motif 31 128 (human) (UniProt P06400); assay: RPA, competition: +free pRb peptide 1000 nM
[32] = target: pRb-BSA 1x peptide-protein conjugate (bovine); assay: RPA, competition: +free pRb peptide 1000 nM
[33] = target: ERK1 (p44) inactive (GST tagged), human, Invitrogen PV 3312 (human) (UniProt P27361); assay: RPA, competition: +free pRb peptide 1000 nM
[34] = target: ERK1 (p44), human, Cell Signaling Technology 7416 (human) (UniProt P27361); assay: RPA, competition: +free pRb peptide 1000 nM
[35] = target: pErk1/2-BSA 2.7x peptide-protein conjugate (human; bovine); assay: RPA, competition: +free pRb peptide 1000 nM
[36] = target: Histone H3 recombinant protein, calf, Roche 11 034 758 001 (calf) (UniProt P68432); assay: RPA, competition: +free pRb peptide 1000 nM
[37] = target: Erk1-BSA 2.7x peptide-protein conjugate (human; bovine); assay: RPA, competition: +free pRb peptide 1000 nM
[38] = target: ERK2 (p42), human, Biosource PHO 0104 (human) (UniProt P28482); assay: RPA, competition: +free pRb peptide 1000 nM
[39] = target: Histone H3 recombinant protein, human, Upstate 14-494 (human) (UniProt P68431); assay: RPA, normal assay
[40] = target: Histone H3-BSA 2.7x peptide-protein conjugate (bovine); assay: RPA, normal assay
[41] = target: pRb recombinant protein, human, Active Motif 31 128 (human) (UniProt P06400); assay: RPA, normal assay
[42] = target: pRb-BSA 1x peptide-protein conjugate (bovine); assay: RPA, normal assay
[43] = target: Erk1-BSA 2.7x peptide-protein conjugate (human; bovine); assay: RPA, normal assay
[44] = target: pRb recombinant protein, human, Active Motif 31 128 (human) (UniProt P06400); assay: RPA standard curves
[45] = target: pRb recombinant protein, human, Active Motif 31 128 (human) (UniProt P06400); assay: RPA standard curve, assay 1, LOD back-calculated from one-site fit
[46] = target: pRb-BSA 1x peptide-protein conjugate (bovine); assay: as above
[47] = target: pRb recombinant protein, human, Active Motif 31 128 (human) (UniProt P06400); assay: RPA standard curve, assay 2, LOD back-calculated from one-site fit
[48] = target: pRb-BSA 1x peptide-protein conjugate (bovine); assay: as above

UniProt P28482, sequence (P28482 2-360 limits assumed): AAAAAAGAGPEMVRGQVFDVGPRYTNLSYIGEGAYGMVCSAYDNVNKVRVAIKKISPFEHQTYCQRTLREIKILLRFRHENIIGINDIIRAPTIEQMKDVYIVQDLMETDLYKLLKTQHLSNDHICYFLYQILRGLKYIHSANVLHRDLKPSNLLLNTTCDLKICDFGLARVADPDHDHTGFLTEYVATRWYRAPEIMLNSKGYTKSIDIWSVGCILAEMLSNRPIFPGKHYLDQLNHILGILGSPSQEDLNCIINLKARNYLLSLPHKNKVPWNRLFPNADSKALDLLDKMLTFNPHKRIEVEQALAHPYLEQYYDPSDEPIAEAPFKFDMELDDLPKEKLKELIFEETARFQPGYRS
UniProt P06400, sequence (P06400 whole entry): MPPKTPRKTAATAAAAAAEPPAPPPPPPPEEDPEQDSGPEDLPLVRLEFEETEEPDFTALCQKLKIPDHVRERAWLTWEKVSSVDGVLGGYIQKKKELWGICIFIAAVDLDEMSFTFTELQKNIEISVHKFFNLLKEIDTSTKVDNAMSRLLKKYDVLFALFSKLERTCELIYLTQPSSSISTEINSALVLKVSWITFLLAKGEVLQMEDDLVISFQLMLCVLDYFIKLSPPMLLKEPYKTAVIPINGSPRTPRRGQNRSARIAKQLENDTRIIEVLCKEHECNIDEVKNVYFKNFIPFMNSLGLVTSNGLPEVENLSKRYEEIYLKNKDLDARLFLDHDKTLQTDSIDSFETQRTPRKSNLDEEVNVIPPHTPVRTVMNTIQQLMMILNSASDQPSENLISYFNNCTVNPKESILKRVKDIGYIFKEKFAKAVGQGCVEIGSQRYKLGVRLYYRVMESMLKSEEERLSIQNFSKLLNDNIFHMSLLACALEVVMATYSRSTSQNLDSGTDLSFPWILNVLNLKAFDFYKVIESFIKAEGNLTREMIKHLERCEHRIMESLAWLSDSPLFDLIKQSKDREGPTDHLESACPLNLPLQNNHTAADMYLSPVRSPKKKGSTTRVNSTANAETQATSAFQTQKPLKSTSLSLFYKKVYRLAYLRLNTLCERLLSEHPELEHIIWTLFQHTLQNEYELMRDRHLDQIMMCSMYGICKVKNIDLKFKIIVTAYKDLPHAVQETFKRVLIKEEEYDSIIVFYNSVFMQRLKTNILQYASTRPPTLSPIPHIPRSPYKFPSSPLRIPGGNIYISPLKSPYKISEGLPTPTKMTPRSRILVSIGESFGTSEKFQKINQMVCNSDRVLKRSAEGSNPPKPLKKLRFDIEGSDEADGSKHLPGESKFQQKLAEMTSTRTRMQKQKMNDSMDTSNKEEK
pRb-BSA 1x peptide-protein conjugate (bovine), sequence (P02769 25-607 limits assumed): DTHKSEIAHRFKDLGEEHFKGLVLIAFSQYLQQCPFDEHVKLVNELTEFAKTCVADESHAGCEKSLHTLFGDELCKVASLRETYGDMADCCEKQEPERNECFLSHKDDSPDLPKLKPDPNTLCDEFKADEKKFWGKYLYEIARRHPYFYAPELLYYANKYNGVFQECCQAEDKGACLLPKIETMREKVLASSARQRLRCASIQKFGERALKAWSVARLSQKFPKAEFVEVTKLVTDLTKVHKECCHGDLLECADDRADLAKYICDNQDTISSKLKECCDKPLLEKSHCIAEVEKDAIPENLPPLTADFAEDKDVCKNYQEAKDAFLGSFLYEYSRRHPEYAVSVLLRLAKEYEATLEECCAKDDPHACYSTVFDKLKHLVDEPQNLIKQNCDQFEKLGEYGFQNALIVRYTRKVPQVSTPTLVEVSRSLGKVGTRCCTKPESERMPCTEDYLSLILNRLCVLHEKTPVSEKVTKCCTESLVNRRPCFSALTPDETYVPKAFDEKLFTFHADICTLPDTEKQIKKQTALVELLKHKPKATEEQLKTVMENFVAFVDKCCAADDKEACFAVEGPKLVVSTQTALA
pErk1/2-BSA 2.7x peptide-protein conjugate (human; bovine), sequence (P02769 25-607 limits assumed): as above
Histone H3-BSA 2.7x peptide-protein conjugate (bovine), sequence (P02769 25-607 limits assumed): as above
Erk1-BSA 2.7x peptide-protein conjugate (human; bovine), sequence (peptide, as listed by the source limits assumed, chain 1 of 2): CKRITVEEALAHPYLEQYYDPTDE
Erk1-BSA 2.7x peptide-protein conjugate (human; bovine), sequence (P02769 25-607 limits assumed, chain 2 of 2): as the sequence (P02769 25-607 limits assumed) above

Rb phospho (pRb) Ser807/811 antibody, Cell Signaling Technology #9308
mean LOD [1]: 0.097 nM
mean LOD [2]: 0.025 nM
maximum standard curve signal [3]: < 0.01 RFI
maximum standard curve signal [4]: < 0.01 RFI
maximum standard curve signal [5]: < 0.01 RFI
maximum standard curve signal [6]: 0.02 RFI
maximum standard curve signal [7]: < 0.01 RFI
maximum standard curve signal [8]: 0.07 RFI
maximum standard curve signal [9]: < 0.01 RFI
maximum standard curve signal [10]: < 0.01 RFI
maximum standard curve signal [11]: 0.01 RFI
maximum standard curve signal [12]: < 0.01 RFI
maximum standard curve signal [13]: < 0.01 RFI
maximum standard curve signal [14]: < 0.01 RFI
maximum standard curve signal [15]: < 0.01 RFI
maximum standard curve signal [16]: < 0.01 RFI
maximum standard curve signal [17]: < 0.01 RFI
maximum standard curve signal [18]: 0.02 RFI
maximum standard curve signal [19]: < 0.01 RFI
maximum standard curve signal [20]: < 0.01 RFI
maximum standard curve signal [21]: < 0.01 RFI
maximum standard curve signal [22]: < 0.01 RFI
maximum standard curve signal [23]: < 0.01 RFI
maximum standard curve signal [24]: < 0.01 RFI
maximum standard curve signal [25]: < 0.01 RFI
maximum standard curve signal [26]: < 0.01 RFI
maximum standard curve signal [27]: < 0.01 RFI
maximum standard curve signal [28]: < 0.01 RFI
maximum standard curve signal [29]: < 0.01 RFI
maximum standard curve signal [30]: 0.01 RFI
maximum standard curve signal [31]: < 0.01 RFI
maximum standard curve signal [32]: < 0.01 RFI
maximum standard curve signal [33]: < 0.01 RFI
maximum standard curve signal [34]: < 0.01 RFI
maximum standard curve signal [35]: < 0.01 RFI
maximum standard curve signal [36]: < 0.01 RFI
maximum standard curve signal [37]: < 0.01 RFI
maximum standard curve signal [38]: < 0.01 RFI
maximum standard curve signal [39]: 0.01 RFI
maximum standard curve signal [40]: 0.03 RFI
maximum standard curve signal [41]: 0.04 RFI
maximum standard curve signal [42]: 0.47 RFI
maximum standard curve signal [43]: 0.01 RFI
signal intensity relative to the pRb-BSA peptide standard curves [44]: 10%
LOD [45]: 0.117 nM
LOD [46]: 0.024 nM
LOD [47]: 0.077 nM
LOD [48]: 0.026 nM
